Data on two substances can be found in patent EP1398371A1.

In one experiment the target is human CD81 (human) (UniProt P60033). Nature of the experiment: cell-based or functional assay.
Experiment [1] concerns the target HCV E2 glycoprotein of genotype 1a (Hepatitis C virus genotype 1a) (UniProt P27958). Nature of the experiment: cell-based or functional assay.

A value given as a limit tells only on which side of the number the result lay.

“JS-81 anti-CD81 monoclonal antibody (Pharmingen)” came in with an inhibition of infection by HCVpp of genotypes 1a and 1b after pre-incubation of the target cells with antibody (30 µg/ml) in the experiment with human CD81 (human) greater than 90%.

Substance “recombinant GST-fusion polypeptide encompassing the large extra-cellular loop (LEL) of human CD81 (from UniProt P60033 113-201)” showed an inhibition of infectivity of HCVpp on Huh-7 cells (hCD81-LEL at 4, 8, 16 µg/ml pre-incubated with the particles) in experiment [1] of 38 to 54%.
